# Source: patent publication US20120039865A1, “IDENTIFICATION OF SORTILIN AS A NEURONAL RECEPTOR FOR THE FRONTOTEMPORAL DEMENTIA PROTEIN, PROGRANULIN” (Yale University, priority 2008, published 2012)
# Molecular target: endogenous mouse sortilin (Sort1) of mouse brain lysate, mouse cortical neurons and mice in vivo (mouse) (UniProt Q6PHU5)
# Assay: cell-based or functional assay
# endogenous mouse sortilin (Sort1) of mouse brain lysate, mouse cortical neurons and mice in vivo (mouse), sequence (Q6PHU5 74-825 limits assumed): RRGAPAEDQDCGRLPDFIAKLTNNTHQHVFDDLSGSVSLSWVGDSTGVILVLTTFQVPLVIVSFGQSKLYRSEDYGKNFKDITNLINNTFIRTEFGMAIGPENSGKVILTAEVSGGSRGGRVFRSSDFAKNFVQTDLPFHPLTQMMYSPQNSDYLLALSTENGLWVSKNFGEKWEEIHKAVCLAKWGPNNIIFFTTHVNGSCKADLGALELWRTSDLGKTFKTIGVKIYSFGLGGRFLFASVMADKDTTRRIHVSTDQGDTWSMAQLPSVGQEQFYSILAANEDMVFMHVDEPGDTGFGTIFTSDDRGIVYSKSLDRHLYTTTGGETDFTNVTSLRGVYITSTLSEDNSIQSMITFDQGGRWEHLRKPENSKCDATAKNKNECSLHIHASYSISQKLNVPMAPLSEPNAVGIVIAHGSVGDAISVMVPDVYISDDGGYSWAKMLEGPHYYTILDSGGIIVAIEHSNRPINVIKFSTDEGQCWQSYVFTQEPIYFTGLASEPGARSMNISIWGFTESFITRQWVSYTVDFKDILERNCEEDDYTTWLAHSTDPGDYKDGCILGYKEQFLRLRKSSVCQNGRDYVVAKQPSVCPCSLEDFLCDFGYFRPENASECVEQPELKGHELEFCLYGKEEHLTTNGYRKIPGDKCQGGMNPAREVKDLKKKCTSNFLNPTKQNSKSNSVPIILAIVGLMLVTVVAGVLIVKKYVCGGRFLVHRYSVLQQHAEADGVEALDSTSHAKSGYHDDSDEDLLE
substance,measurement,value
endogenous mouse PGRN (serum and brain of mice) (from UniProt P28798 18-589) (ligand),fold-increase in PGRN level in brain of sortilin -/- mice,3 fold
same,fold-increase in PGRN level in serum of sortilin -/- mice (immunoblot),4 fold
